B3: empty (LexA DNA-binding domain without insert) (other, UniProt P0A7C2 1-202, looked up)
chain: MKALTARQQEVFDLIRDHISQTGMPPTRAEIAQRLGFRSPNAAEEHLKALARKGVIEIVSGASRGIRLLQEEEEGLPLVGRVAAGEPLLAQQHIEGHYQVDPSLFKPNADFLLRVSGMSMKDIGIMDGDLLAVHKTQDVRNGQVVVARIDDEVTVKRLKKQGNKVELLPENSEFKPIVVDLRQQSFTIEGLAVGVIRNGDWL
B5: SIP-L (other)
chain: MASEELQKDLEEVKVLLEKATRKRVRDALTAEKSKIETEIKNKMQQKSQKKAELLDNEKPAAVVAPITTGYTVKISNYGWDQSDKFVKIYITLTGVHQVPTENVQVHFTERSFDLLVKNLNGKSYSMIVNNLLKPISVEGSSKKVKTDTVLILCRKKVENTRWDYLTQVEKECKEKEKPSYDTETDPSEGLMNVLKKIYEDGDDDMKRTINKAWVESREKQAKGDTEF

The target of one series is T1, SAF-1 (human, UniProt Q9Y3I1 92-522).
T1 construct: also called SAF-1α; Skp1-Associated F-box protein-1
T1 sequence: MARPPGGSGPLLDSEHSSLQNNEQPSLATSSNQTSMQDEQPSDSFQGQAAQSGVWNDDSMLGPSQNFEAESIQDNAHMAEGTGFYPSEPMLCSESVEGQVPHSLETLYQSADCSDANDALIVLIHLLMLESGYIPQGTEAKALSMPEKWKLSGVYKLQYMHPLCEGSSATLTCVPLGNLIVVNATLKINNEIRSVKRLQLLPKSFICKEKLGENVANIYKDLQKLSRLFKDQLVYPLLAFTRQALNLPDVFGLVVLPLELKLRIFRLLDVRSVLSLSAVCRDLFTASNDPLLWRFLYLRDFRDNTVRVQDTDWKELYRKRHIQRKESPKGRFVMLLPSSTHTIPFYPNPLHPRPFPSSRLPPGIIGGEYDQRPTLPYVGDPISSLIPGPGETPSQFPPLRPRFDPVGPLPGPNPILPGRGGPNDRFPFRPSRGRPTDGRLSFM
Kind of series: yeast two-hybrid (FIG. 6A).

For a further series, the target named is T2, Siah-1 (22-298) (human, UniProt Q8IUQ4 6-282).
T2 construct: also called Siah-1α amino acids 22-298; LexA/Siah-1 bait
T2 sequence: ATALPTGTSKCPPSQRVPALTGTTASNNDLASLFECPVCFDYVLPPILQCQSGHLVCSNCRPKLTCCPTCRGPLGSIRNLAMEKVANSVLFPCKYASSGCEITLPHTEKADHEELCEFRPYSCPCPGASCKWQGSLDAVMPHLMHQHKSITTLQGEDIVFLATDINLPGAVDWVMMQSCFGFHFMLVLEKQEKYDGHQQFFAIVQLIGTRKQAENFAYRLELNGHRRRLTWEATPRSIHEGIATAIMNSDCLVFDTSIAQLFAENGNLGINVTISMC
Kind of series: yeast two-hybrid library screen; LexA-Siah-1 (22-298) bait, human embryonic brain cDNA clones.

Series [1] deals with B3. Kind of series: yeast two-hybrid; empty LexA with B42-APC(2681-2843); Leu+ growth - and β-Gal -.
The target in series [2] is B5. The series can be described thus: yeast two-hybrid; empty LexA with B42-SIP-L; Leu+ growth - and β-Gal -.
The target of series [3] is B5. The series can be described thus: yeast two-hybrid; LexA-SIP-L with B42-SIP-S; Leu+ growth - and β-Gal -.
Series [4] concerns the molecule itself. Kind of series: yeast two-hybrid; LexA-SIP-L with B42-SIP-L; growth on leucine-deficient media (Leu+).
In the next series the target is HA-TRAF6. Kind of series: cell-based or functional assay.

Procedure for SAF-1: Transformed cells were grown on semi-solid media lacking leucine or containing leucine as a control.
Procedure for Siah-1 (22-298): Transformations were performed by a LiCi method using 0.25 mg of pJG4-5-cDNA library DNA, and 5 mg of denatured salmon sperm carrier DNA. Clones that formed on Leu deficient BMM plates containing 2% galactose/1% raffinose were transferred to BMM plates containing leucine and 2% glucose, and filter assays were performed for β-galactosidase measurements as previously described.

B1: Siah-1 (other)
chain: MVIIIFLLPPYVFISEMSRQTATALPTGTSKCPPSQRVPALTGTTASNNDLASLFECPVCFDYVLPPILQCQSGHLVCSNCRPKLTCCPTCRGPLGSIRNLAMEKVANSVLFPCKYASSGCEITLPHTEKADHEELCEFRPYSCPCPGASCKWQGSLDAVMPHLMHQHKSITTLQGEDIVFLATDINLPGAVDWVMMQSCFGFHFMLVLEKQEKYDGHQQFFAIVQLIGTRKQAENFAYRLELNGHRRRLTWEATPRSIHEGIATAIMNSDCLVFDTSIAQLFAENGNLGINVTISMC
notes: also called Siah-1α; Siah 1α
Take B1: the binding result with SAF-1 is listed as “no binding”.

B2: APC (2681-2843) (other, human, UniProt P25054 2681-2843, looked up)
chain: PVIDSVSEKANPNIKDSKDNQAKQNVGNGSVPMRTVGLENRLNSFIQVDAPDQKGTEIKPGQNNPVPVSETNESSIVERTPFSSSSSSKHSSPSGTVAARVTPFNYNPSPRKSSADSTSARPSQIPTPVNNNTKKRDSKTDSTESSGTQSPKRHSGSYLVTSV
notes: LexA or B42 fusion in yeast two-hybrid
For the molecule B2, the figures for the binding result (in the series with Siah-1 (22-298); in series [1]) were “binds” and “no binding”, respectively.

For B3, the binding result with SIP-L [2] is “no binding”.

B4: SIP-S (other)
chain: MASEELQKDLEEVKVLLEKATRKRVRDALTAEKSKIETEIKNKMQQKSQKKAELLDNEKPAAVVAPITTGYTDGISQISL
notes: B42 fusion in yeast two-hybrid
On to B4, for which the binding result in the series with SIP-L [3] is reported as “no binding”; with Siah-1 (22-298), “binds”.

For the molecule B5, the binding result (in series [4]; with Siah-1 (22-298)) was “binds” each time.

B6: ODC-RANK peptide (protein, part only; not given: Order of parts uncertain, part only)
chain, part: MEQKLISEEDLMNNFGNEEFDCHFLDEGFTAKDILDQKINEVSSSDDKDAFYVADLGDILKKHLRWLKALPRVTPFYAVKCNDSKAIVKTLAATGTGFDCASKTEIQLVQSLGVPPERIIYANPCKQVSQIKYAANNGVQMMTFDSEVELMKVARAHPKAKLVLRIATDDSKAVCRLSVKFGATLRTSRLLLERAKELNIDVVGVSFHVGSGCTDPETFVQAISDARCVFDMGAEVGFSMYLLDIGGGFPGSEDVKLKFEEITGVINPALDKYFPSDSGVRIIAEPGRYYVASAFTLAVNIIAKKIVLKEQTGSDDEDESSEQTFMYYVNDGVYGSFNCILYDHAHVKPLLQKRPKPDEKYYSSSIWGPTCDGLDRIVERCDLPEMHVGDWMLFENMGAYTVAAASTFNGFQRPTIYYVMSGPAWQLMQQFQNPDFPPEVEEQDASTLPVSCAWESGMKRHRAACASASINVAGGGSGGGGSGGGGSGGGGS
B6: in the series with HA-TRAF6, the half-life of HA-TRAF6 (35S pulse-chase), ODC-RANKp with AZ is < 1 h and the half-life of HA-TRAF6 (35S pulse-chase), ODC-RANKp without AZ stood at 2 h.

The values above are taken from patent US20070042463A1 (BURNHAM INSTITUTE, published 2007).
